Measured values taken from patent publication US20260022175A1 (Chugai, published 2026).
Numbering of substitutions follows the chain as printed. Names may count otherwise.

T1: human FcγRIIb extracellular domain with C-terminal His-tag (human, UniProt P31994 43-217)
T1 construct: extracellular domain; also called hFcγR IIb
T1 sequence (looked up): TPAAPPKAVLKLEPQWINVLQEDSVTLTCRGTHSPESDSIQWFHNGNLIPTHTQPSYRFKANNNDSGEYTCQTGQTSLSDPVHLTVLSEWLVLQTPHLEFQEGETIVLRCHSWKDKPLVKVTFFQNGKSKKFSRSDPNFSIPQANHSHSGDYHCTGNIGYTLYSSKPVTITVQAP

T2: human FcγRIIa R allotype extracellular domain with C-terminal His-tag (human, UniProt P12318 34-217)
T2 construct: extracellular domain; also called hFcγR IIa R
T2 sequence (looked up): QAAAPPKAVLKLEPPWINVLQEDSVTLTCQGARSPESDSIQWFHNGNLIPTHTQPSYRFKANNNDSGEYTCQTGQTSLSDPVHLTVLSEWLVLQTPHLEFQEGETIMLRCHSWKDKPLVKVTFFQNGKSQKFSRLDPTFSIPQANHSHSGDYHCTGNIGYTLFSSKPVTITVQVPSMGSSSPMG

T3: human FcγRIIa H allotype extracellular domain with C-terminal His-tag (human, UniProt P12318 34-217)
T3 construct: extracellular domain; also called hFcγR IIa H
T3 sequence (looked up): T2 sequence (looked up) with R134H

B1: 04H1077-G1m/04L1034-lam1 (antibody, human IgG1, lambda, V domains shown)
VH: EVQLVESGGDLVKPGGGLRLSCAASGFTFSSRTMNWVRQAPGKGLEWVSSISTRSGYIYYAESVKGRFTISRDNAKNSLYLQMNSLRAEDTAVYYCARYGKREDMLWVFDYWGQGTLVTVSS
VL: QSALTQPPSASGSPGQTVTISCDGPSTDVGDYNWVSWYQQHPGKAPKLMIYFTSKKPSGVPDRFSGSKSGNTASLTVSGLQAEDEADYFCSTYAAPLGPMFGGGTKLTVLG
B2: 04H1389-Km462/04L1615-k0MT//04H1389-Hm445/04L1615-k0MT (antibody, human IgG1, kappa)
heavy 1: EVQLVESGGGLVKPGGSLRLSCAASGFTFSSKTMNWVRQAPGKGLEWVSSISTQSHYIYYAESVKGRFTISRDNAKNSLYLQMNSLRAEDTAVYYCARYGKREDMLWVFDYWGQGTLVTVSSASTKGPSVFPLAPSSKSTSGGTAALGCLVKDYFPEPVTVSWNSGALTSGVHTFPAVLQSSGLYSLSSVVTVPSSSLGTQTYICNVNHKPSNTKVDKRVEPKSCDKTHTCPPCPAPEFQWGPMVFLFPPKPKDVLMISRTPEVTCVVVDVSDEEPEVKFNWYVDGVEVHNAKTKPREEQYNATYRVVSVLPVLHQDWLNGKEYKCKVSNDALPAPIEKTISKAKGQPREPQVCTLPPSREEMTKNQVSLWCLVKGFYPSDIAVEWESNGQPENNYKTTPPVLDSDGSFFLYSKLTVDKSRWQQGNVFSCSVMHEALHNHYTQKSLSLSP
heavy 2: EVQLVESGGGLVKPGGSLRLSCAASGFTFSSKTMNWVRQAPGKGLEWVSSISTQSHYIYYAESVKGRFTISRDNAKNSLYLQMNSLRAEDTAVYYCARYGKREDMLWVFDYWGQGTLVTVSSASTKGPSVFPLAPSSKSTSGGTAALGCLVKDYFPEPVTVSWNSGALTSGVHTFPAVLQSSGLYSLSSVVTVPSSSLGTQTYICNVNHKPSNTKVDKRVEPKSCDKTHTCPPCPAPELLAGPSVFLFPPKPKDVLMISRTPEVTCVVVDVSHEEPEVKFNWYVDGVEVHNAKTKPREEQYNATYRVVSVLPVLHQDWLNGKEYKCKVSNDALPKPDEETISKAKGQPREPQVYTLPPSRCEMTKNQVSLSCAVKGFYPSDIAVEWESNGQPENNYKTTPPVLDSDGSFFLVSKLTVDKSRWQQGNVFSCSVMHEALHNHYTQKSLSLSP
light: DIVMTQSPLSLPVTPGEPASISCQGPSTGVGDYNYVHWYQQKPGQAPRLLIYFTSKKPSGVPDRFSGSGSGTDFTLKISRVEAEDVGVYYCQTYAAPLGPMFGQGTKLEIKRTVAAPSVFIFPPSDEQLKSGTASVVCLLNNFYPREAKVQWKVDNALQSGNSQESVTEQDSKDSTYSLSSTLTLSKADYEKHKVYACEVTHQGLSSPVTKSFNRGEC
notes: Heterodimerized antibody
B3: 04H1389-Ks461/04L1615-k0MT//04H1389-Hs443/04L1615-k0MT (antibody, human IgG1, kappa)
heavy 1: B2 heavy 1 with I337E, C354Y
heavy 2: B2 heavy 2 with K335A, D337E, C361E
light: B2 light
notes: Heterodimerized antibody
B4: 04H1389-Ks473/04L1615-k0MT//04H1389-Hs482/04L1615-k0MT (antibody)
heavy 1: B2 heavy 1 with C354Y, N439A, Y441T, Q443R, S445E
heavy 2: B2 heavy 2 with C361E, N439A, Y441T, Q443R, S445E
light: B2 light
notes: Heterodimerized antibody with N434A/Y436T/Q438R/S440E
B5: 04H1389-Km481/04L1615-k0MT//04H1389-Hm498/04L1615-k0MT (antibody)
heavy 1: B2 heavy 1 with I337E, N439A, Y441T, Q443R, S445E
heavy 2: B2 heavy 2 with K335A, D337E, N439A, Y441T, Q443R, S445E
light: B2 light
notes: as for B4
B6: 04H1389-Ks481/04L1615-k0MT//04H1389-Hs498/04L1615-k0MT (antibody)
heavy 1: B2 heavy 1 with I337E, C354Y, N439A, Y441T, Q443R, S445E
heavy 2: B2 heavy 2 with K335A, D337E, C361E, N439A, Y441T, Q443R, S445E
light: B2 light
notes: as for B4
B7: 04H1389-Ks462/04L1615-k0MT//04H1389-Hs445/04L1615-k0MT (antibody, human IgG1, kappa)
heavy 1: B2 heavy 1 with C354Y
heavy 2: B2 heavy 2 with C361E
light: B2 light
notes: Heterodimerized antibody

Columns and labels:
[1] = molecular target: T4, hCTLA4-His-BAP (human CTLA4 extracellular region with C-terminal His-tag and BAP-tag) (human, biotin on the BAP-tag); experiment: SPR 37C, hCTLA4 1000 nM, ATP 100 µM; ATP 100 µM; binding amount at 1000 nM hCTLA4
T4 construct: also called hCTLA4-His-Biotin
T4 sequence (chain, as listed by the source limits assumed): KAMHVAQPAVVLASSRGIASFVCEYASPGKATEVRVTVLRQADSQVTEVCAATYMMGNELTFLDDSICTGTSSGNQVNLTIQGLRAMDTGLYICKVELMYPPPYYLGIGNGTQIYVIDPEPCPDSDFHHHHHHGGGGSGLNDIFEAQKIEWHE

[2] = molecular target: T4, hCTLA4-His-BAP (human CTLA4 …); experiment: SPR 37C, hCTLA4 1000 nM, no ATP; no ATP; binding amount at 1000 nM hCTLA4
[3] = molecular target: T4, hCTLA4-His-BAP (human CTLA4 …); experiment: SPR 37C, hCTLA4 1000 nM, ATP 1 µM; ATP 1 µM; binding amount at 1000 nM hCTLA4
[4] = molecular target: T4, hCTLA4-His-BAP (human CTLA4 …); experiment: SPR 37C, ATP 100 µM; ATP 100 µM
[5] = molecular target: T4, hCTLA4-His-BAP (human CTLA4 …); experiment: SPR 37C, hCTLA4 1000 nM, ATP 10 µM; ATP 10 µM; binding amount at 1000 nM hCTLA4
[6] = molecular target: T1, human FcγRIIb extracellular domain with …; experiment: SPR; binding amount divided by that of 04H1389-G1m/04L1615-k0MT
[7] = molecular target: T5, human FcγRIIIa F allotype extracellular domain with C-terminal His-tag (human, UniProt P08637 17-208); experiment: SPR Biacore T200, Ab captured via Fab-kappa, pH 7.4, 25C;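 note: each FcγR flowed as analyte over the captured antibodies, KD derived by 1:1 Langmuir or steady-state affinity fitting depending on the receptor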
T5 construct: extracellular domain; also called hFcγR IIIa F
T5 sequence (P08637 17-208): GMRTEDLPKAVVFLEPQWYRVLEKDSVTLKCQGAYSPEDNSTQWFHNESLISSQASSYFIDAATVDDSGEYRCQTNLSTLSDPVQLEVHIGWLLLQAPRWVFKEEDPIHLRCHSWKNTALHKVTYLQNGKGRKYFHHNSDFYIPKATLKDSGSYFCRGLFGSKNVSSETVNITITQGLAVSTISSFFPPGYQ

[8] = molecular target: T2, human FcγRIIa R allotype extracellular …; experiment: as above
[9] = molecular target: T6, human FcγRIa extracellular domain with C-terminal His-tag (human, UniProt P12314 16-292); experiment: as above
T6 construct: extracellular domain; also called hFcγR Ia; hFcγRIa
T6 sequence (P12314 16-292): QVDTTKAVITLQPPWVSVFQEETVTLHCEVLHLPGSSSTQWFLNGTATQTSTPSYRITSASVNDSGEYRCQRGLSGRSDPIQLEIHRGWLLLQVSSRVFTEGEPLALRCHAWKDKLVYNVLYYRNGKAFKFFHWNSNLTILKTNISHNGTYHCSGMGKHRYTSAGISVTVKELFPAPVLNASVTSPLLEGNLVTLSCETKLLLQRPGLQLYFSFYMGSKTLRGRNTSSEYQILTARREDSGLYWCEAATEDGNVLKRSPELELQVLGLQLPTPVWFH

[10] = molecular target: T7, human FcγRIIIa V allotype extracellular domain with C-terminal His-tag (human, UniProt P08637 17-208); experiment: as above
T7 construct: extracellular domain; also called hFcγR IIIa V
T7 sequence (P08637 17-208 F176V): as the sequence (P08637 17-208) above, with F160V counted along it

[11] = molecular target: T3, human FcγRIIa H allotype extracellular …; experiment: as above
[12] = molecular target: T1, human FcγRIIb extracellular domain with …; experiment: SPR; FcγRIIb bound amount per unit captured Ab
human FcRn [13] = molecular target: T8, human FcRn (human, UniProt P55899 24-290; P61769 21-119); experiment: SPR Biacore T200, Ab captured via Fab-kappa, pH 6.0, steady state
T8 construct: Prepared by the method of WO 2010/107110; also called hFcRn
T8 sequence (P55899 24-290 limits assumed, chain 1 of 2): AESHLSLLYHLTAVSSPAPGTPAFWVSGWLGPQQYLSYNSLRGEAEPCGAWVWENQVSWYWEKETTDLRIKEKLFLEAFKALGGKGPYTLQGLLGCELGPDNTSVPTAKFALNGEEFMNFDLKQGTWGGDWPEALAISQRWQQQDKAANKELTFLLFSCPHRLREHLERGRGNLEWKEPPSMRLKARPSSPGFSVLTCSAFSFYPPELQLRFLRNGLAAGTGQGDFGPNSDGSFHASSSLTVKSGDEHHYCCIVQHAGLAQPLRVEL
T8 sequence (P61769 21-119 limits assumed, chain 2 of 2): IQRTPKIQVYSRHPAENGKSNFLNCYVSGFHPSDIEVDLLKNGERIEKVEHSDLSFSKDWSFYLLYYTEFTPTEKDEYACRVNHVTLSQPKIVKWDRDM

[14] = molecular target: T2, human FcγRIIa R allotype extracellular …; experiment: SPR; KD of 04H1389-G1m/04L1615-k0MT divided by KD of variant
[15] = molecular target: T6, human FcγRIa extracellular domain with …; experiment: as above
[16] = molecular target: T7, human FcγRIIIa V allotype extracellular …; experiment: as above
[17] = molecular target: T3, human FcγRIIa H allotype extracellular …; experiment: as above
human FcRn [18] = molecular target: T8, human FcRn; experiment: as above

Binder | Binding to Human CTLA4 [1] | Binding to Human CTLA4 [2] | Binding to Human CTLA4 [3] | Kd [4] | Binding to Human CTLA4 [5] | Relative binding amount [6] | Kd [7] | Kd [8] | Kd [9] | Kd [10] | Kd [11] | Binding amount [12] | Kd (human FcRn [13]) | Relative value to KD between G1m and hFcγRs [14] | Relative value to KD between G1m and hFcγRs [15] | Relative value to KD between G1m and hFcγRs [16] | Relative value to KD between G1m and hFcγRs [17] | Relative value to KD between G1m and hFcRn (human FcRn [18])
B1 | 0.114 per unit amount of antibody | 0.004 per unit amount of antibody | 0.007 per unit amount of antibody | 320 nM | 0.041 per unit amount of antibody |  |  |  |  |  |  |  |  |  |  |  |  | 
B2 |  |  |  |  |  | 2.6 | 2.2 nM | 160 nM | 0.048 nM | 1.1 nM | 74 nM | 0.029 | 1700 nM | 9.5 | 0.9 | 811 | 14.4 | 0.8
B3 |  |  |  |  |  | 2.1 | 1.2 nM | 250 nM | 0.03 nM | 0.56 nM | 160 nM | 0.024 | 1700 nM | 5.9 | 1.5 | 1630 | 6.7 | 0.8
B4 |  |  |  |  |  | 2.3 | 2.3 nM | 160 nM | 0.051 nM | 1.2 nM | 75 nM | 0.026 | 450 nM | 9 | 0.9 | 760 | 14.1 | 2.9
B5 |  |  |  |  |  | 1.9 | 1.4 nM | 290 nM | 0.042 nM | 0.62 nM | 210 nM | 0.021 | 470 nM | 5.1 | 1.1 | 1470 | 5 | 2.8
B6 |  |  |  |  |  | 2 | 1.3 nM | 260 nM | 0.028 nM | 0.6 nM | 190 nM | 0.023 | 460 nM | 5.6 | 1.6 | 1500 | 5.6 | 2.8
B7 |  |  |  |  |  | 2.6 | 2.1 nM | 160 nM | 0.047 nM | 1.1 nM | 67 nM | 0.03 | 1600 nM | 9.1 | 1 | 830 | 15.8 | 0.8
